Patent US10466252B2, “Methods for selecting protease resistant polypeptides” (Glaxo Group Limited, priority 2008, dated 2019)

Assays:
human GLP-1 receptor = molecular target: T1, human GLP-1 receptor (Homo sapiens, UniProt P43220); assay: GLP-1 receptor assay, CHO 6CRE GLP1R cells, luciferase reporter (384-well, STEADY GLO); assay type: cell-based
T1 construct: expressed in transfected cells; host or cells: CHO K1 (CHO 6CRE GLP1R)
Procedure: Background: GLP-1R is a 7TM G-protein coupled receptor which is expressed on CHO cells. […] CHO cells are stably transfected with the 6CRE/luc reporter gene. […] This then catalyses a reaction with luciferin to produce light which can be measured on a luminometer.
Suspension culture was maintained for forty-eight hours. Cells were then diluted into 15 mM HEPES, 2 mM L glutamine (2.5×10^5 cells/ml) and dispensed into 384-well plates containing 10 ul/well of the compound to be assayed. After the addition of assay controls, plates were returned to the incubator for 3h at 37° C. and 5% CO2. […] Plates were placed in the reader (Packard TopCount) and pre-incubated for 5 minutes prior to reading […] and plotting of results. Compound was assayed at a range of concentrations response curve to be fitted from which pC50s were calculated.

[1] = system: natural protease acting in E. coli cells; assay: Integrity after expression in E. coli (non reducing SDS-PAGE, mass spectrometry, Edman sequencing); details: MS and Edman sequencing
Procedure: Expression was performed by inoculation of a 50 milliliter culture of 2×TY media supplemented with OVERNIGHT EXPRESS™ autoinduction solutions (1 milliliter of Solution 1 (Cat. No. 71298), 2.5 milliliters of Solution 2 (Cat. No. 71299), 50 microliters of Solution 3 (Cat. No 71304), Novagen) and 100 microgram per milliliter of carbenicillin. Culture was carried overnight at 37° C., and then the culture supernatant was clarified by centrifugation at 3700×g for 45 minutes. The expressed protein was then purified from the clarified supernatant using PROTEIN L STREAMLINE™ (GE Healthcare, Cat. No. 28-4058-03, protein L coupled), and eluted from the Protein L using 0.1M glycine pH 2.0, then neutralized using 0.2 volumes of 1M Tris pH 8.0.
After the plasmid DNA pDOM35 comprising sequence of DMS7161 was transformed into BL21(DE3), glycerol stock was prepared from grown colonies, by scraping colonies into minimal media with glucose and addition of glycerol, final conentration of approximately 15%. Expression of DMS7161 was started by inoculation of the glycerol into 50 milliliters of minimal media (DMS7161 A) supplemented in Yeast Extract for final concentration 10 g/liter (DMS7161 B) so as to obtain the starting culture density of OD600=0.024. The culture was grown to OD600 of approximately 1.4 at 30° C., then induced by the addition of 0.1 mM isopropyl-beta-d-thiogalactoside. […]

[2] = molecular target: T2, GLP-1 receptor (CHO 6CRE GLP1R cells) (Homo sapiens, UniProt P43220); assay: GLP-1 assay, CHO 6CRE GLP1R cells, luciferase reporter (96-well, BRIGHT-GLO); assay type: cell-based
T2 construct: expressed in transfected cells; host or cells: CHO 6CRE GLP1R cells (CHO K1)
T2 sequence (P43220 24-463): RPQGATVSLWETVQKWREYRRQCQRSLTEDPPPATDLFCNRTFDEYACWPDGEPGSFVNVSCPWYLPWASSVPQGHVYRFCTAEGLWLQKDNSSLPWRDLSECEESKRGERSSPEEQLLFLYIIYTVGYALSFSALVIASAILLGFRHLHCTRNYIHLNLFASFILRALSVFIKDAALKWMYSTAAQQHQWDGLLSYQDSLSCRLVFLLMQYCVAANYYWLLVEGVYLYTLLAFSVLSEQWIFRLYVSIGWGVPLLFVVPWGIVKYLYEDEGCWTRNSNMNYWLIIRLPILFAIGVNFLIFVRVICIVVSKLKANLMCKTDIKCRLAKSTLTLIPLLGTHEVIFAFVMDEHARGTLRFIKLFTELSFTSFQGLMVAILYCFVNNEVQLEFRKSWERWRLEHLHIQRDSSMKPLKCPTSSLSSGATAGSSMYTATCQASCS

T1 sequence (P43220 24-463): as above

| Molecule | % max response (human GLP-1 receptor; CHO 6CRE GLP1R cells, 3h at 37° C.) | activity in GLP-1 receptor assay compared with GLP-1 peptide (human GLP-1 receptor; FIG. 6) | integrity / degradation on expression in E. coli [1] | activity compared with DMS7148 [2] |
| --- | --- | --- | --- | --- |
| DMS7148: *GLP-1 variant (W25-D mutation) fused to ALBUDAB DOM7h-14 by PSS linker; SEQ ID NO: 16 (protein, Source Amino acid sequence of DMS7148 domain antibody made using molecular biology techniques.) HGEGTFTSDVSSYLEGQAAKEFIADLVEGRGPSSDIQMTQSPSSLSASVGDRVTITCRASQWIGSQLSWYQQKPGKAPKLLIMWRSSLQSGVPSRFSGSGSGTDFTLTISSLQPEDFATYYCAQGAALPRTFGQGTKVEIKR | 107% | active, however less active than GLP-1 peptide | well expressed in E. coli with the majority of material migrating at the expected size | – |
| DMS7161: *GLP-1 variant of DMS7148 fused to DOM7h-14-10 by PSS linker; A = minimal media, B = with Yeast Extract (protein, Source Amino acid sequence of DMS7161 domain antibody made using molecular biology techniques., *GLP-1 variant of DMS7148 fused to DOM7h-14-10 by PSS linker; A = minimal media, B = with Yeast Extract) HGEGTFTSDVSSYLEGQAAKEFIADLVEGRGPSSDIQMTQSPSSLSASVGDRVTITCRASQWIGSQLSWYQQKPGKAPKLLIMWRSSLQSGVPSRFSGSGSGTDFTLTISSLQPEDFATYYCAQGLRHPKTFGQGTKVEIKR | – | – | well expressed in E. coli with the majority of material migrating at the expected size | as active as DMS7148 |
